Test system: Escherichia coli TOP10
Experiment: shrunken log2 fold change of peptide-encoding DNA abundance (4.5 h post-induction vs induction); higher = less antimicrobial activity (less host growth inhibition)
Settings: time post-induction: 4.5 h; library: site-saturation at positions 5, 18, 19, 20
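Also: peptides expressed intracellularly from a pBAD plasmid library in pooled LB shake-flask culture, induced with 0.3% L-arabinose, DNA abundance read by NGS, three biological replicates, DESeq2 with apeglm shrinkage.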

Sequence	shrunken log2 fold change
RRIRLRPPRLPRPRPRPNVCPRP	-0.0138
RRIRLRPPRLPRPRPRPNWIPRP	-0.583
RRIRLRPPRLPRPRPRPPDCPRP	0.0366
RRIRLRPPRLPRPRPRPPEMPRP	1.71
RRIRLRPPRLPRPRPRPPFCPRP	0.701
RRIRLRPPRLPRPRPRPPFPPRP	0.455
RRIRLRPPRLPRPRPRPPFTPRP	0.11
RRIRLRPPRLPRPRPRPPGAPRP	0.54
RRIRLRPPRLPRPRPRPPGKPRP	-0.0183
RRIRLRPPRLPRPRPRPPGLPRP	0.149
RRIRLRPPRLPRPRPRPPKAPRP	0.025
RRIRLRPPRLPRPRPRPPKHPRP	0.117
RRIRLRPPRLPRPRPRPPKRPRP	0.492
RRIRLRPPRLPRPRPRPPLAPRP	0.519
RRIRLRPPRLPRPRPRPPMHPRP	0.363
RRIRLRPPRLPRPRPRPPMIPRP	-0.0218
RRIRLRPPRLPRPRPRPPNNPRP	-0.106
RRIRLRPPRLPRPRPRPPPHPRP	1.13
RRIRLRPPRLPRPRPRPPQFPRP	-0.165
RRIRLRPPRLPRPRPRPPQMPRP	0.304
RRIRLRPPRLPRPRPRPPRHPRP	0.377
RRIRLRPPRLPRPRPRPPRSPRP	0.422
RRIRLRPPRLPRPRPRPPRYPRP	0.178
RRIRLRPPRLPRPRPRPPSNPRP	0.00215
RRIRLRPPRLPRPRPRPPSQPRP	0.756

Sequence	shrunken log2 fold change
RRIRLRPPRLPRPRPRPPTMPRP	0.266
RRIRLRPPRLPRPRPRPPVDPRP	0.539
RRIRLRPPRLPRPRPRPPWIPRP	-0.35
RRIRLRPPRLPRPRPRPPYCPRP	-0.0882
RRIRLRPPRLPRPRPRPPYTPRP	-0.674
RRIRLRPPRLPRPRPRPQAAPRP	0.0357
RRIRLRPPRLPRPRPRPQCGPRP	0.0192
RRIRLRPPRLPRPRPRPQDDPRP	-0.224
RRIRLRPPRLPRPRPRPQDVPRP	-0.0265
RRIRLRPPRLPRPRPRPQEQPRP	-0.00233
RRIRLRPPRLPRPRPRPQEWPRP	0.0562
RRIRLRPPRLPRPRPRPQFHPRP	-0.414
RRIRLRPPRLPRPRPRPQFKPRP	-0.501
RRIRLRPPRLPRPRPRPQFNPRP	-0.57
RRIRLRPPRLPRPRPRPQFRPRP	-0.244
RRIRLRPPRLPRPRPRPQGFPRP	-0.0528
RRIRLRPPRLPRPRPRPQGKPRP	0.0467
RRIRLRPPRLPRPRPRPQGQPRP	-0.0201
RRIRLRPPRLPRPRPRPQHLPRP	-0.223
RRIRLRPPRLPRPRPRPQHMPRP	-0.767
RRIRLRPPRLPRPRPRPQIPPRP	-0.273
RRIRLRPPRLPRPRPRPQKWPRP	2.37
RRIRLRPPRLPRPRPRPQMHPRP	-0.295
RRIRLRPPRLPRPRPRPQMPPRP	-0.417
RRIRLRPPRLPRPRPRPQMRPRP	0.64

Sequence	shrunken log2 fold change
RRIRLRPPRLPRPRPRPQNNPRP	-0.585
RRIRLRPPRLPRPRPRPQPMPRP	0.216
RRIRLRPPRLPRPRPRPQQVPRP	0.107
RRIRLRPPRLPRPRPRPQSKPRP	-0.224
RRIRLRPPRLPRPRPRPQSLPRP	-0.0995
RRIRLRPPRLPRPRPRPQSNPRP	-0.0786
RRIRLRPPRLPRPRPRPQTDPRP	-0.139
RRIRLRPPRLPRPRPRPQVGPRP	-0.203
RRIRLRPPRLPRPRPRPQYHPRP	-0.895
RRIRLRPPRLPRPRPRPQYNPRP	-0.791
RRIRLRPPRLPRPRPRPRAEPRP	0.0944
RRIRLRPPRLPRPRPRPRCGPRP	0.0294
RRIRLRPPRLPRPRPRPRCWPRP	0.371
RRIRLRPPRLPRPRPRPREQPRP	0.134
RRIRLRPPRLPRPRPRPRGAPRP	0.425
RRIRLRPPRLPRPRPRPRHPPRP	0.163
RRIRLRPPRLPRPRPRPRIHPRP	-0.081
RRIRLRPPRLPRPRPRPRIKPRP	-0.168
RRIRLRPPRLPRPRPRPRIMPRP	-0.333
RRIRLRPPRLPRPRPRPRKIPRP	0.103
RRIRLRPPRLPRPRPRPRKSPRP	0.376
RRIRLRPPRLPRPRPRPRMLPRP	-0.0478
RRIRLRPPRLPRPRPRPRMWPRP	0.458
RRIRLRPPRLPRPRPRPRQVPRP	-0.0496
RRIRLRPPRLPRPRPRPRRRPRP	0.395

Sequence	shrunken log2 fold change
RRIRLRPPRLPRPRPRPRTFPRP	-0.0808
RRIRLRPPRLPRPRPRPRTTPRP	0.182
RRIRLRPPRLPRPRPRPRVFPRP	-0.0171
RRIRLRPPRLPRPRPRPRVIPRP	0.0615
RRIRLRPPRLPRPRPRPRVMPRP	0.0356
RRIRLRPPRLPRPRPRPRVNPRP	-0.155
RRIRLRPPRLPRPRPRPSCNPRP	-0.661
RRIRLRPPRLPRPRPRPSCYPRP	-0.164
RRIRLRPPRLPRPRPRPSEGPRP	-0.501
RRIRLRPPRLPRPRPRPSEVPRP	-0.396
RRIRLRPPRLPRPRPRPSFVPRP	-0.392
RRIRLRPPRLPRPRPRPSILPRP	-0.57
RRIRLRPPRLPRPRPRPSLIPRP	-0.217
RRIRLRPPRLPRPRPRPSLPPRP	-0.0357
RRIRLRPPRLPRPRPRPSMFPRP	-0.498
RRIRLRPPRLPRPRPRPSNLPRP	-0.181
RRIRLRPPRLPRPRPRPSNYPRP	-0.53
RRIRLRPPRLPRPRPRPSQLPRP	-0.282
RRIRLRPPRLPRPRPRPSRPPRP	0.233
RRIRLRPPRLPRPRPRPSRYPRP	-0.0576
RRIRLRPPRLPRPRPRPSSCPRP	-0.277
RRIRLRPPRLPRPRPRPSSNPRP	-0.211
RRIRLRPPRLPRPRPRPSTFPRP	-0.33
RRIRLRPPRLPRPRPRPSVMPRP	-0.199
RRIRLRPPRLPRPRPRPSVRPRP	0.0468

Sequence	shrunken log2 fold change
RRIRLRPPRLPRPRPRPSWKPRP	0.132
RRIRLRPPRLPRPRPRPSWMPRP	-0.167
RRIRLRPPRLPRPRPRPSWPPRP	0.00705
RRIRLRPPRLPRPRPRPSWWPRP	1.77
RRIRLRPPRLPRPRPRPTFYPRP	-0.273
RRIRLRPPRLPRPRPRPTHMPRP	0.0883
RRIRLRPPRLPRPRPRPTHQPRP	0.592
RRIRLRPPRLPRPRPRPTICPRP	-0.176
RRIRLRPPRLPRPRPRPTMDPRP	-0.0334
RRIRLRPPRLPRPRPRPTMEPRP	0.274
RRIRLRPPRLPRPRPRPTMHPRP	0.0766
RRIRLRPPRLPRPRPRPTPRPRP	0.763
RRIRLRPPRLPRPRPRPTRRPRP	0.298
RRIRLRPPRLPRPRPRPTSGPRP	0.0882
RRIRLRPPRLPRPRPRPTSPPRP	-0.0576
RRIRLRPPRLPRPRPRPTTFPRP	0.0632
RRIRLRPPRLPRPRPRPTTVPRP	-0.175
RRIRLRPPRLPRPRPRPTWGPRP	0.637
RRIRLRPPRLPRPRPRPTYFPRP	-0.451
RRIRLRPPRLPRPRPRPTYIPRP	-0.304
RRIRLRPPRLPRPRPRPVAGPRP	0.0563
RRIRLRPPRLPRPRPRPVCHPRP	-0.274
RRIRLRPPRLPRPRPRPVCPPRP	0.149
RRIRLRPPRLPRPRPRPVDMPRP	-0.375
RRIRLRPPRLPRPRPRPVFIPRP	-0.454

Sequence	shrunken log2 fold change
RRIRLRPPRLPRPRPRPVFNPRP	-0.448
RRIRLRPPRLPRPRPRPVFPPRP	0.263
RRIRLRPPRLPRPRPRPVFRPRP	0.0694
RRIRLRPPRLPRPRPRPVFYPRP	-0.5
RRIRLRPPRLPRPRPRPVHNPRP	-0.281
RRIRLRPPRLPRPRPRPVICPRP	-0.16
RRIRLRPPRLPRPRPRPVKYPRP	-0.446
RRIRLRPPRLPRPRPRPVLLPRP	0.0821
RRIRLRPPRLPRPRPRPVNEPRP	-0.0825
RRIRLRPPRLPRPRPRPVPGPRP	0.113
RRIRLRPPRLPRPRPRPVQAPRP	-0.0131
RRIRLRPPRLPRPRPRPVRVPRP	0.428
RRIRLRPPRLPRPRPRPVSCPRP	-0.0041
RRIRLRPPRLPRPRPRPVTGPRP	-0.121
RRIRLRPPRLPRPRPRPVWDPRP	-0.0661
RRIRLRPPRLPRPRPRPVWHPRP	-0.047
RRIRLRPPRLPRPRPRPVWNPRP	0.2
RRIRLRPPRLPRPRPRPVYAPRP	0.00563
RRIRLRPPRLPRPRPRPWAGPRP	-0.0317
RRIRLRPPRLPRPRPRPWDAPRP	0.135
RRIRLRPPRLPRPRPRPWFDPRP	-0.365
RRIRLRPPRLPRPRPRPWGFPRP	-0.0515
RRIRLRPPRLPRPRPRPWHWPRP	0.019
RRIRLRPPRLPRPRPRPWHYPRP	-0.164
RRIRLRPPRLPRPRPRPWICPRP	-0.213

From the supplement of paper PMC9112550, “Optimization of the antimicrobial peptide Bac7 by deep mutational scanning” (BMC Biology, 2022)
